Laboratory results taken from patent publication US11389516B2, “Composition comprising UNE-L domain of leucyl-tRNA synthetase as effective ingredient for augmenting muscle” (GACHON UNIVERSITY OF INDUSTRY-ACADEMIC COOPERATION …, priority 2017, dated 2022).
Values belong to the molecule of their own block, whether it stands above or below them.

Tests used:
[1] = system: S6K1 phosphorylation (mTORC1 activation); experiment: Amino acid mediated mTORC1 activation through S6K1 phosphorylation, Western blotting, HEK293 cells treated with SAR405; format: cell-based
Protocol: Particularly, HEK293 cells were transducted with lentivirus expressing LRS shRNA (shLRS) or scrambled sequence shRNA (control). The cells were cultured in DMEM supplemented with 10% fetal bovine serum (FBS) in a 37° C., 5% CO2 incubator for 3 days. As for the LRS shRNA, shLRS-1 (TRCN0000290440) or shLRS-2 (TRCN0000290511) was used. As for the scrambled sequence shRNA, the sRNA previously described (Yoon, et al., J Cell Biol., 2011 195(3); 435-447) was used. Lentivirus packaging and transduction were performed according to the methods described in the following paper (Sun, et al., Proc Natl Acad Sci USA., 2008, 105(24); 8286-8291). The simultaneous expression of Vps15 and Vps34 was necessary for the stability and activity of Vps34, so the cells were transfected with bicistronic Myc-Vps34/V5-Vps15 plasmid (Yan, et al., Biochem J., 2009, 417(3); 747-755), followed by culture in the absence of FBS for overnight. On the next day, the cells were cultured in DMEM without leucine or amino acid for 2 hours, followed by stimulating the cells with 0.8 mM leucine or amino acids at the same concentration as DMEM for 30 minutes. The cell lysate was analyzed by Western blotting according to the conventional method. The intensity of the bands obtained by Western blotting was quantified by measuring the X ray film image density using Image J software.
HEK293 cells were treated with SAR405 (APExBIO, US), a Vps34 specific inhibitor, and then amino acid mediated mTORC1 activation was investigated through S6K1 phosphorylation. […] Western blotting was performed by stimulating cells with amino acids by the same manner as described in Example <1-1> except that HEK293 cells were treated with SAR405 at the concentration of 3 μM and co-transfected with Myc-LRS and Myc-S6K1. At this time, the cells untreated with SAR405 were used as the control. All the quantification data was presented as mean±standard deviation of the values obtained from at least three independent experiments performed separately. Statistical significance was analyzed by student's t-test (*p≤0.05. **p≤0.01).

Vps34 = biological target: T1, Vps34 (Mus musculus, UniProt Q6PF93); experiment: In vitro Vps34 lipid kinase assay on Vps34 immune complex from MEF cells with added purified GST protein; format: biochemical; conditions: FIG. 7
T1 construct: endogenous in cells; host or cells: MEF cells
Protocol: To perform in vitro Vps34 lipid kinase assay, the Vps34 immunocomplex was washed with PBS containing 1% NP-40 three times, with PBS containing 100 mM Tris (pH 7.4) containing 500 mM LiCl three times, and with TNE buffer (10 mM Tris (pH 7.4), 100 mM NaCl and 1 mM EDTA) twice, then 2 mg/ml of […] and 10 μCi ^32P-γ-ATP (PerkinElmer) were added to TNE buffer. The reaction was terminated by adding 20 μl of 8 N HCl and lipid was extracted with 160 μl of CHCl3:MeOH (1:1). ^32P-PI(3)P was separated on a thin layer chromatography plate (EMD Chemicals Inc.) using CHCl3:MeOH:NH4OH:water (60:47:2:11.3) as a solvent, followed by measuring Vps34 activity by radiograph. The activity of Vps34 was quantified by standardizing the Vps34 amount included in the immune precipitate determined by quantification of Western blotting. To measure the amount of intracellular PI(3)P, ELISA-format assay was performed according to the manufacturer's protocol, leading to quantification of the amount of PI(3)P from nonlinear fitting of the PI(3)P standard. All quantificative data was presented as mean±standard deviation of the values obtained from at least three independent experiments performed separately. Statistical significance was analyzed by student's t-test ([…]. **p≤0.01).
Particularly, MEF cells were cultured in the absence of FBS for overnight. On the next day, the cells were cultured in leucine-free DMEM for 2 hours. Anti-Atg14L antibody was added in the cell lysate thereto, followed by immunoprecipitation to eliminate Atg14L from the cell lysate. Then, anti-Vps34 antibody was added thereto, followed by immunoprecipitation of Vps34. The Vps34 immune complex was placed in TNE buffer supplemented with 2 mg/ml of PI, 10 μCi ^32P-γ-ATP (PerkinElmer) and 3.75 μg of GST protein in the presence or absence of leucine for 20 minutes at 30° C. […] All the quantification data was presented as mean±standard deviation of the values obtained from at least three independent experiments performed separately. Statistical significance was analyzed by student's t-test (*p≤0.05. **p≤0.01).

[2] = system: S6K1 phosphorylation (mTORC1 activity); experiment: Western blotting of phosphorylated S6K1 in knock-down HEK293 cells with exogenous phosphatidic acid; format: cell-based; conditions: 100 μM PA, amino acid stimulation
Protocol: Particularly, HEK293 cells were transducted with lentivirus expressing LRS shRNA (shLRS) or scrambled sequence shRNA (control). The cells were cultured in DMEM supplemented with 10% fetal bovine serum (FBS) in a 37° C., 5% CO2 incubator for 3 days. As for the LRS shRNA, shLRS-1 (TRCN0000290440) or shLRS-2 (TRCN0000290511) was used. As for the scrambled sequence shRNA, the sRNA previously described (Yoon, et al., J Cell Biol., 2011 195(3); 435-447) was used. Lentivirus packaging and transduction were performed according to the methods described in the following paper (Sun, et al., Proc Natl Acad Sci USA., 2008, 105(24); 8286-8291). […] The cell lysate was analyzed by Western blotting according to the conventional method. The intensity of the bands obtained by Western blotting was quantified by measuring the X ray film image density using Image J software.
Particularly, HEK293 cells were transduced with shLRS, shRagD lentivirus or lentivirus expressing scrambled sequence shRNA (control), and then stimulated with amino acids by the same manner as described in Example <1-1> in the presence or absence of 100 μM phosphatidic acid (PA), a product of PLD1. Lysates of the cells were analyzed by Western blotting according to the method conventionally performed.

C2C12 cells = experiment: MHC/DAPI immunostaining of differentiated C2C12 cells (differentiation index, fusion index, myotube size); format: cell-based, mouse; conditions: given as NP-UNE-L, three days differentiation, FIG. 15
Protocol: Particularly, to investigate the role of the UNE-L domain of LRS, NP-UNE-L was constructed by binding the UNE-L domain of LRS to nanoparticles (NP) through the conventional method.
C2C12 cells, the mouse muscle cells, were maintained in DMEM supplemented with 4.5 g/l of glucose and 10% FBS in a 37° C., 7.5% CO2 incubator. To induce myogenesis, the cells were cultured on a plate coated with 0.2% gelatin until 100% confluence and the culture medium was replaced with the differentiation-inducing medium containing 2% horse serum. The culture medium was replaced every day for 3 days. During differentiation for three days, the differentiation-inducing medium treated group, the differentiation-inducing medium and NP-UNE-L treated group, and the differentiation-inducing medium and NP treated group were compared.
After the differentiation of C2C12 cells for three days, Western blotting was performed with the cell lysate according to the conventional method. To compare the differentiation level of C2C12 cells, C2C12 cells were fixed and immunostained with MHC, a myocyte differentiation marker, and 4′,6-diamidino-2-phenylindole (DAPI), a cell nucleus marker (Yoon et al. 2013 Molecular biology of the cell, 24(23) 3754-3763). […] The differentiation index was calculated as the percentage of nuclei in the myotubes stained with MHC and the fusion index was calculated as the percentage of nuclei in the myotubes with two or more nuclei stained with MHC. The myotube size was calculated as the number of nuclei in the myotube stained with MHC.

[3] = system: tibialis anterior (TA) muscles; experiment: Muscle regeneration after BaCl2 induced muscle injury, NP-UNE-L injected with BaCl2; format: in vivo, BL6 mice; conditions: given as NP-UNE-L with BaCl2 into TA, vs NP in contralateral TA, 7 days, FIG. 16
Protocol: Particularly, BaCl2 (prepared in saline at the concentration of 1.2% wt/vol: 50 μl) was injected into the tibialis anterior (TA) muscles of 10-week-old BL6 mice to induce muscle injury (Sun et al., 2011, J. Cell Biol. 192, 69-81). NP-UNE-L was injected with BaCl2 on the left side and NP was injected with BaCl2 on the right side. 7 days later, the mice were sacrificed and the tibialis anterior muscles were separated and placed in 2-methylbutane which was coldly prepared in liquid nitrogen, followed by embedding in TBS tissue freezing medium. Cryosection was performed at −20° C. to the thickness of 10 μm by using a cryostat (Microm HM550; Thermo Fisher Scientific). The prepared sections were placed on non-coated slides, followed by staining with hematoxylin and eosin (H&E). The stained slides were observed through a 10× dry objective lens of a microscope (DMI 4000B; Leica). The stained images were photographed with a 24-bit image camera (RETIGA EXi; Q Imaging) and the regenarating myofiber cross section area (CSA) was measured by image J. CSA was measured only in the myofibers showing the characteristics of regenerating myofiber with the nucleus in the center.

tibialis anterior (TA) = experiment: Muscle regeneration after BaCl2 induced muscle injury in AAV-UNE-L injected tibialis anterior; format: in vivo, BL6 mice; conditions: expressed from AAV-UNE-L in TA, vs AAV-GFP contralateral
Protocol: Particularly, AAV-UNE-L was injected into the left tibialis anterior (TA) of 10-week-old BL6 mice and AAV-GFP was injected into the right tibialis anterior (TA) of 10-week-old BL6 mice, and after 7 weeks, BaCl2 (prepared in saline at the concentration of 1.2% wt/vol: 50 μl) was injected to induce muscle injury (Sun et al., 2011, J. Cell Biol. 192, 69-81). 7 days later, the mice were sacrificed and the tibialis anterior muscles were separated and fixed in 10% paraformaldehyde, followed by embedding in paraffin. The section was performed to the thickness of 10 μm, and the prepared sections were placed on non-coated slides, followed by staining with hematoxylin and eosin (H&E). The stained slides were observed through a 10× dry objective lens of a microscope (Olympus CKX3-Houn Microscope). The stained images were photographed with 24-bit image and the regenarating myofiber cross section area (CSA) was measured by image J. CSA was measured only in the myofibers showing the characteristics of regenerating myofiber with the nucleus in the center.

T1 sequence (Q6PF93 whole entry): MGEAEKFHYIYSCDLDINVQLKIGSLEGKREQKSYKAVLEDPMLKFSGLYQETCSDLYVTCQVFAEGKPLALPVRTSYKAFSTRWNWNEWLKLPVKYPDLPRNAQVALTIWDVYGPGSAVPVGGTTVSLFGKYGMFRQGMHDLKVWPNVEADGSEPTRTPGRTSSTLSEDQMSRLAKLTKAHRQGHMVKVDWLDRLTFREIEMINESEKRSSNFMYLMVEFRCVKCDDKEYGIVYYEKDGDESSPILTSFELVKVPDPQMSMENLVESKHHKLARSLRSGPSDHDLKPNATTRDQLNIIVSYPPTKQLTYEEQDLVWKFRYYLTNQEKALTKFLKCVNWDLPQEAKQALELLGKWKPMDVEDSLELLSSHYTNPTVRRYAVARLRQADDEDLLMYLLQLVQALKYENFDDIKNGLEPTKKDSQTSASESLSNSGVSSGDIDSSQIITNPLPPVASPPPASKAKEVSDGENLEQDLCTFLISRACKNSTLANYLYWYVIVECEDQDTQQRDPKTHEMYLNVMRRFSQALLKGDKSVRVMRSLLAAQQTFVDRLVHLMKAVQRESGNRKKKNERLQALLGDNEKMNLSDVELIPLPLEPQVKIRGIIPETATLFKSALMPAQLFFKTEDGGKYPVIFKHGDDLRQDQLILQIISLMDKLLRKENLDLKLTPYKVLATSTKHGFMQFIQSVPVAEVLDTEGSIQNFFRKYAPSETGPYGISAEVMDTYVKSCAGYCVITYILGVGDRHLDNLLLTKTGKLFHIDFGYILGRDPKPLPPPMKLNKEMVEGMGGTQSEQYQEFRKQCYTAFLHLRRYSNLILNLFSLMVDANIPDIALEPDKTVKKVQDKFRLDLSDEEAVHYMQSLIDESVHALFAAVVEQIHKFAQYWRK
T1 sequence (Q8VD65 whole entry partner): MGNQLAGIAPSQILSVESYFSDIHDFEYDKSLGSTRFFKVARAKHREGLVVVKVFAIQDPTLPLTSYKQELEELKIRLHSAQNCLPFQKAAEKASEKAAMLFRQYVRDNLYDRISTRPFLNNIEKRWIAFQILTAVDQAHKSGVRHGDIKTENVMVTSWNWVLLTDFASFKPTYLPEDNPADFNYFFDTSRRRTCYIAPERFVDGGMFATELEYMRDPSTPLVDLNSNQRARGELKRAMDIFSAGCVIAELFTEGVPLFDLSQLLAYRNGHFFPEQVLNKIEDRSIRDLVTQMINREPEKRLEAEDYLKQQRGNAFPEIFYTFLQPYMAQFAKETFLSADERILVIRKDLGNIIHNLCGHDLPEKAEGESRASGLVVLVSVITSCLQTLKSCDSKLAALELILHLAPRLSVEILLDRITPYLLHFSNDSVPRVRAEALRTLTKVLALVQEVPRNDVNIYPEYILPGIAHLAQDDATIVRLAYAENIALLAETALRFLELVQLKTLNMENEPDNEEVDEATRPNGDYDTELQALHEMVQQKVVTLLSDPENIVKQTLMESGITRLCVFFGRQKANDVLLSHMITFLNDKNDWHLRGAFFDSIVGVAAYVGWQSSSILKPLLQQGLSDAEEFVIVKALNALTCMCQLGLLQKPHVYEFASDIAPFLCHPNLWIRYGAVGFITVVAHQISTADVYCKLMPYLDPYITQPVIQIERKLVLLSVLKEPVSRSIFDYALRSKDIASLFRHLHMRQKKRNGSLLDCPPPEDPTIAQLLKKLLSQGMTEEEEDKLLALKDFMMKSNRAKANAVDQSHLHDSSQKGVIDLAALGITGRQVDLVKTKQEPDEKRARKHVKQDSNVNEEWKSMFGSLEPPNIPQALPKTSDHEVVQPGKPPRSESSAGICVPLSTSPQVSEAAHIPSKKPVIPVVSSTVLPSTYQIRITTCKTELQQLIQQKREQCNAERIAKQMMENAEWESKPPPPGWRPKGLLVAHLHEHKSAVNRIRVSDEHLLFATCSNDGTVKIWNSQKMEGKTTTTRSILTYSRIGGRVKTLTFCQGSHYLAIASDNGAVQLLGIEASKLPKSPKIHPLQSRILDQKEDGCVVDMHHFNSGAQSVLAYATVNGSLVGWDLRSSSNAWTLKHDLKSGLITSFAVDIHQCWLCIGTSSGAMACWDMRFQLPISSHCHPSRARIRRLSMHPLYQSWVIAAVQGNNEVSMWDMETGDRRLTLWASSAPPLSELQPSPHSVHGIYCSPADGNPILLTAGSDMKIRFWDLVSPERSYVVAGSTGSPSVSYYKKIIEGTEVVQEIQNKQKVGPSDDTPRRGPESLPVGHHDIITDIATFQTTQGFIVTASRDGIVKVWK

Molecule: C[C@@H]1COCCN1c1cc(=O)n2c(n1)N(Cc1cncc(Cl)c1)[C@H](C(F)(F)F)CC2 [SAR405]
S6K1 phosphorylation increased by LRS overexpression ([1]; HEK293 cells co-transfected with Myc-LRS and Myc-S6K1, SAR405 3 μM, FIG. 3C): reduced
S6K1 phosphorylation induced by total amino acids ([1]; HEK293 cells, FIG. 3B): reduced
concentration at which S6K1 phosphorylation was completely inhibited ([1]; HEK293 cells, tested at 0.1, 0.3, 1, 3 and 10 μM, amino acid stimulation): 3 µM

activity of Vps34 compared to the GST control (Vps34; purified protein added to Vps34 immune complex): about 3 times
activity of Vps34 with leucine stimulation (Vps34; purified protein added to Vps34 immune complex, in the presence of leucine): further increased
Molecule: GST-LRS protein: purified GST-LRS (leucyl-tRNA synthetase) protein expressed in E. coli BL21

activation of Vps34 (Vps34; regardless of the presence or absence of leucine stimulation): did not induce the activation of Vps34
Molecule: LRS mutation (F50A/Y52A): leucine binding deficient mutant of LRS

Molecule: phosphatidic acid [PA]
amount of phosphorylated S6K1 ([2]; LRS knocked-down, FIG. 11): increased again
amount of S6K1 phosphorylated ([2]; both LRS and RagD knocked-down): partially increased

B1: UNE-L domain of LRS: UNE-L domain of leucyl-tRNA synthetase C-terminus, polypeptide of the amino acid sequence SEQ. ID. NO: 1 (protein, listed as Homo sapiens)
chain: PGVSVSLVNPQPSNGHFSTKIEIRQGDNCDSIIRRLMKMNRGIKDLSKVKLMRFDDPLLGPRRVPVLGKEYTEKTPISEHAVFNVDLMSKKIHLTENGIRVDIGDTIIYLVH
differentiation index of C2C12 cells (C2C12 cells): increased
fusion index of C2C12 cells (C2C12 cells): increased
myotube size (C2C12 cells): increased
CSA of the muscle fibers generated during muscle regeneration [3]: increased
CSA of the muscle fibers generated during muscle regeneration (tibialis anterior (TA); BaCl2 after 7 weeks, 7 days later, FIGS. 18A and 18B): increased
mean value of CSA (tibialis anterior (TA); FIG. 18C): increased significantly
